# Laboratory results published in US20250186614A1, “COMPACT DRUG RESPONSIVE DOMAINS FOR REGULATION OF FUNCTION/ABUNDANCE AND DELIVERY OF POLYPEPTIDE PAYLOADS” (OBSIDIAN THERAPEUTICS, INC., priority 2022, published 2025).
# Where two headings read alike, the source gives them in different places.
# Experiment: Example 4: dose response of FKBP constructs 160-255, Ec50, Ec90 and fold change (raw and normalized to mCherry)
# Assay type: cell-based
# Conditions: for FC (fold change): fold change during initial analysis
# Protocol: Additional experiments were performed for constructs FKBP-160-292.
# [1] = FKBP constructs 160-255, not normalized, read-out: EC90
# [2] = normalized to mCherry, read-out: EC90 (Norm)
Molecule,EC90 [1],FC (fold change),EC90 [2]
"FKBP-220: FKBP13 DRD-AcGFP construct of Table 10 (protein, Description of sequence: Construct Name: FKBP-220; Mutation(s): Q72R Q84E A117W V85R DRD T25G) HCPIKSRKGDVLHMHYTGKLEDGGEFDSSLPRNQPFVFSLGTGERIKGWDQGLLGMCEGEKRKLVIPSELGYGERGWPPKIPGGATLVFEVELLKIER",156 nM,34.2,165 nM
"FKBP-164 (protein, Description of sequence: Construct Name: FKBP-164; Mutation(s): Q72R Q84E A117W DRD M54A P118V V85R) HCPIKSRKGDVLHAHYTGKLEDGTEFDSSLPRNQPFVFSLGTGERIKGWDQGLLGMCEGEKRKLVIPSELGYGERGWVPKIPGGATLVFEVELLKIER",580 nM,42.7,621 nM
"FKBP-227 (protein, Description of sequence: Construct Name: FKBP-227; Mutation(s): Q72R Q84E A117W DRD E137R) HCPIKSRKGDVLHMHYTGKLEDGTEFDSSLPRNQPFVFSLGTGEVIKGWDQGLLGMCEGEKRKLVIPSELGYGERGWPPKIPGGATLVFEVELLKIRR",293 nM,29.0,278 nM
"FKBP-223: FKBP13 DRD-AcGFP construct of Table 10 (protein, Description of sequence: Construct Name: FKBP-223; Mutation(s): Q72R Q84E A117W V85R DRD M54A P4W T25R) HCWIKSRKGDVLHAHYTGKLEDGREFDSSLPRNQPFVFSLGTGERIKGWDQGLLGMCEGEKRKLVIPSELGYGERGWPPKIPGGATLVFEVELLKIER",674 nM,52.5,713 nM
"FKBP-222 (protein, Description of sequence: Construct Name: FKBP-222; Mutation(s): Q72R Q84E A117W DRD P4W T25R) HCWIKSRKGDVLHMHYTGKLEDGREFDSSLPRNQPFVFSLGTGEVIKGWDQGLLGMCEGEKRKLVIPSELGYGERGWPPKIPGGATLVFEVELLKIER",612 nM,40.6,602 nM
"FKBP-231 (protein, Description of sequence: Construct Name: FKBP-231; Mutation(s): Q72R Q84E A117W V85R DRD G63M) HCPIKSRKGDVLHMHYTGKLEDMTEFDSSLPRNQPFVFSLGTGERIKGWDQGLLGMCEGEKRKLVIPSELGYGERGWPPKIPGGATLVFEVELLKIER",396 nM,39.9,399 nM
"FKBP-225 (protein, Description of sequence: Construct Name: FKBP-225; Mutation(s): Q72R Q84E A117W V85R DRD P43R) HCRIKSRKGDVLHMHYTGKLEDGTEFDSSLPRNQPFVFSLGTGERIKGWDQGLLGMCEGEKRKLVIPSELGYGERGWPPKIPGGATLVFEVELLKIER",25.4 nM,20.6,26 nM
"FKBP-221 (protein, Description of sequence: Construct Name: FKBP-221; Mutation(s): Q72R Q84E A117W V85R DRD M54A T25G) HCPIKSRKGDVLHAHYTGKLEDGGEFDSSLPRNQPFVFSLGTGERIKGWDQGLLGMCEGEKRKLVIPSELGYGERGWPPKIPGGATLVFEVELLKIER",495 nM,41.8,567 nM
"FKBP-224 (protein, Description of sequence: Construct Name: FKBP-224; Mutation(s): Q72R Q84E A117W DRD P43R) HCRIKSRKGDVLHMHYTGKLEDGTEFDSSLPRNQPFVFSLGTGEVIKGWDQGLLGMCEGEKRKLVIPSELGYGERGWPPKIPGGATLVFEVELLKIER",78.6 nM,5.2,88.7 nM
"FKBP-230: FKBP13 DRD-AcGFP construct of Table 10 (protein, Description of sequence: Construct Name: FKBP-230; Mutation(s): Q72R Q84E A117W DRD G63M) HCPIKSRKGDVLHMHYTGKLEDMTEFDSSLPRNQPFVFSLGTGEVIKGWDQGLLGMCEGEKRKLVIPSELGYGERGWPPKIPGGATLVFEVELLKIER",997 nM,49.0,890 nM
"FKBP-233: FKBP13 DRD-AcGFP construct of Table 10 (protein, Description of sequence: Construct Name: FKBP-233; Mutation(s): Q72R Q84E A117W DRD D90T) HCPIKSRKGDVLHMHYTGKLEDGTEFDSSLPRNQPFVFSLGTGEVIKGWTQGLLGMCEGEKRKLVIPSELGYGERGWPPKIPGGATLVFEVELLKIER",272 nM,47.2,335 nM
"FKBP-232 (protein, Description of sequence: Construct Name: FKBP-232; Mutation(s): Q72R Q84E A117W V85R DRD G63M M54A) HCPIKSRKGDVLHAHYTGKLEDMTEFDSSLPRNQPFVFSLGTGERIKGWDQGLLGMCEGEKRKLVIPSELGYGERGWPPKIPGGATLVFEVELLKIER",938 nM,35.0,1090 nM
"FKBP-229: FKBP13 DRD-AcGFP construct of Table 10 (protein, Description of sequence: Construct Name: FKBP-229; Mutation(s): Q72R Q84E A117W V85R DRD E137R M54A) HCPIKSRKGDVLHAHYTGKLEDGTEFDSSLPRNQPFVFSLGTGERIKGWDQGLLGMCEGEKRKLVIPSELGYGERGWPPKIPGGATLVFEVELLKIRR",484 nM,54.0,455 nM
"FKBP-226: FKBP13 DRD-AcGFP construct of Table 10 (protein, Description of sequence: Construct Name: FKBP-226; Mutation(s): Q72R Q84E A117W V85R DRD P43R M54A) HCRIKSRKGDVLHAHYTGKLEDGTEFDSSLPRNQPFVFSLGTGERIKGWDQGLLGMCEGEKRKLVIPSELGYGERGWPPKIPGGATLVFEVELLKIER",44.6 nM,31.5,47 nM
